Laboratory results from the supplement of paper PMC12042874.
± gives the uncertainty stated by the source.

Assay: amyloid nucleation score (Sup35N fusion, yeast selection) (log enrichment); library NNK3; higher = more nucleation; inactive = no reads after selection
How it was run: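 The nucleation score equals the log enrichment of output over input reads from DiMSum, centred on the mode score of non-aggregating sequences. It was computed only for sequences with 100 or more input reads. The reads came from Illumina sequencing of plasmid inserts from psi-negative yeast expressing Sup35N fused to peptides of 20 random codons, induced with 100 μM copper sulfate for 24 hours and grown 7 days at 30°C without adenine and uracil.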

Amyloid nucleation score, 2.41 ± 0.076:
ANCCYPDLSCYVLYCGSSCL

Amyloid nucleation score, -0.824 ± 1.5:
ASLRWVLRLCRNLHTSSMET

Amyloid nucleation score, 0.585 ± 0.32:
AVNFCMLWGVYASSQKNLGF

Amyloid nucleation score, -1.05 ± 2.5:
ANPGG

Amyloid nucleation score, -0.092 ± 1.1:
CDSWAYCRGCFRFML

Amyloid nucleation score, 0.531 ± 0.32:
AVLCELVQDMFSLGVYVCHE

Amyloid nucleation score, 1.55 ± 0.065:
AFIRFTVFNIGVKKYSCL

Amyloid nucleation score, 0.406 ± 0.19:
AWKTFFVIYSS

Amyloid nucleation score, 0.062 ± 0.75:
AYSSVLINLSEYTLGIAVPM

Amyloid nucleation score, -0.22 ± 1.4:
AFLPMCGLDFKWRYV

Amyloid nucleation score, 1.03 ± 0.14:
CIRIYATFFKLRQSYNGTNG

Amyloid nucleation score, 1.06 ± 0.16:
ANSNRRECQHNS

Amyloid nucleation score, 0.767 ± 0.16:
CEISLV

Amyloid nucleation score, -0.13 ± 0.77:
APFCVRGSWELRQVFRM

Amyloid nucleation score, 0.435 ± 0.19:
CGSWAYRY

Amyloid nucleation score, 0.64 ± 0.2:
ASMLALCVLMHRLEPIRSFN

Amyloid nucleation score, 1.16 ± 0.1:
AVTFTHRFSRISPCHRRRWK

Amyloid nucleation score, 0.967 ± 0.11:
AKHGLVDAQRALGISYQKNK

Amyloid nucleation score, 0.45 ± 0.39:
AMEEDIYLTNDYTIIM

Amyloid nucleation score, 1.29 ± 0.11:
CGYCVFPFLNGITVGGRFGH

Amyloid nucleation score, -0.654 ± 1.5:
CIVAANHRRCNFLRLGRRLG

Amyloid nucleation score, 0.052 ± 0.66:
ARICVRAFKETCDYKLGCST

Amyloid nucleation score, 1.51 ± 0.091:
CIMALGSNVLFRLEN

Amyloid nucleation score, 1.09 ± 0.17:
AILCTIVCNASWAEEQSA

Amyloid nucleation score, inactive:
AAEPEVDNSYTAGDSGTRGT
AALTPNPGVD
AANPFFTIYHLVRSYNVCRW
AAVSGDVTM
ACIFNLGGVHRCICCVLFNI
ACLSFVYALYPLCLRLIS
ADFDDHDYLVMCDWWINMHS
ADKRSMMWKFMFSRFCGRVT
ADRMDGDSTGFYSTNLRGYS
ADVNTL
AESIR
AEWGFVGGIYWYLRKVPRSH
AFFTFGAPCIQDNESGDRGG
AFKDNNDCLEHCCRRVTDLV
AFPCFIVY
AFSKRSSWNNHFICVNDVVQ
AGGSVYKIVEFSCLLFNQKY
AGPVF
AGQFPREQ
AGVDWQILV
AHFFVCCALSDRCRLRDVLQ
AHGTMGGNYGRNVQLDDRLN
AHLQVYFSSNVC
AHVALR
AIDLKLAKSEWGWSALGWFL
AIEQSLDWF
AIMLVSLC
AIRPKSGAWSHLCYASIG
AISYYYEHARLGWYGVELRP
AIYKGSWEPFGIDA
AKFSGVLKAYAVREATYCLG
ALMLDIFGRCTLRFRISGHG
ALNDLLAYSLSSKSFSYNWI
ALQYGNHRGCSYGCMITFVR
ALVLNLDRVWVSLTDGPWSD
ALVVSTWYSPGDMDLTPLHW
ALWWKRGVNMRNPSETRLAM
AMGLACGLDGSAVFGCMLTT
AMVKEFWVDSRHFIDRYSKC
ANAFTGIRCVQVRRRCSLDM
ANGLLSFSGRADGLQTNSGC
ANGRN
ANHDVLADVCRLSRRGVLRR
ANHNLYRDDDREYFFMLCY
ANLRSLTR
ANSNVGSLF
ANVARFMYSFVKQALSLWVR
AQILYYLYYT
ARCECESSTRVSSLVYLSRE
ARHSCA
ARIDCGSVELKECDLRPDYG
ARWNAI
ARWTMRAMLDWSIALSDHWV
ASCAWNGWTLIFLFYRCYFQ
ASCPLSKKWMELGKCAGPTH
ASDTVTCFAYAVKGLRRASG
ASILEFPRSTKSTSLGRSGR
ASLTGNFYTGWRFLALATMC
ASRSMTGSLCLFAFMV
ASTEKGGPNDGTCWYPYCTA
ASTMDW
ATCWDEYDPRDPLA
ATIIPICSHLIDHSVSLDQG
AVCFRVLCFKLLTT
AVCYRLWFKM
AVISKDCDSYAIYHHVFHST
AVLCVCIHRLPFYFPPLLKM
AVMWYIPRDG
AVMYSCQYRDKWVEVAMVTS
AVSRDCELYKVEYYLVQ
AVTDTNLLLFDVGYESLVHS
AVWTCIGWDERTKMLYKFIR
AWELEKTTYRRGRAIVVHTP
AWHCLDYYRSGSVIDRRVGM
AWNLS
AWSLVGMHAVNNFHLKQEFL
AWTIRGQA
AWYKFVGRVMRDPYMEARLA
AYFIPYNTWFYKKGMARQFF
AYMYCVMTGSWVVKIRPGTR
CAVALLNHRG
CAVYCNLNDVIGVFTILQRS
CAYRLNVGSVRFGKMHPRRS
CAYVENSCGTILVCALYCGS
CCMYMISCRDN
CCQLGESTENGLFSDDWRCE
CCVCLCACRLFCSIVADYRR
CCWRNLYSFLRKGSYSRCM
CDAWILFFWHVVNISYRVDK
CDIPFF
CDTSFKIDELPYSASLHFAF
CDVCNM
CDVHTGRCDSCYTGNSTKFG
CDVLYRILRYIYSGKLLFSE
CDVPAKYLGKICDSYALSIF
CEGMKCYVVLTRLRLKKTRT
CELLCFTGLSDYNTGSGVRR
CEMVCSTVIPIEVTSWLVMV
CEVHEGWIA
CFIVQWMLTLMCVFANCILT
CFKPILDLGSKCLFVLVVGK
CFLCFTPHSFHVCSI
CFRLPCVQESVPDKVLLTGS
CFTVVPGSVMF
CFVAGYRSIGLLRFITIFCV
CFVGHADLKFMGFHWMVGEC
CFYEGYWREITNMAFLILRP
CGAQALAQWYLYLLSHAIQY
CGLRIRWSNVLYSRRTCGFT
CGMRNLR
CGVSLDRWSNMQ
CGWMTHSEL
CHASRSGIKLLLSIAAWTCI
CHLYLPSQTSQH
CICLVDPERLKDKTI
CIEWHAQGDFFLMICLYCPD
CIFFRVGSFLNYFYASAWHS
CIKTCSCLSLPGLRFSPAIS
CIMFVFILLQYAFYIYILLV
CIPLLFWVWSSNVCVRLKLQ
CISQVVVGSTHTAIGARAFA
CISSGGMLLNSFGSLWA
CIVLLLTPSLGDWYTEDDFL

Amyloid nucleation score, -0.432 ± 0.76:
CCCTNDMWTTGPNCS

Amyloid nucleation score, -0.052 ± 0.38:
CHHYHMWLRFGSVEWIRGMD

Amyloid nucleation score, 0.837 ± 0.13:
AVLWIVSGGTYESVDLNYWC

Amyloid nucleation score, 2.7 ± 0.074:
AVMDGRNMSYSMYIRCCMWL

Amyloid nucleation score, 0.038 ± 0.3:
CECVGFRSRYM

Amyloid nucleation score, 1.83 ± 0.059:
ALFSKKFI

Amyloid nucleation score, 2.37 ± 0.072:
CFANSSYLIGTCLRCACNDR

Amyloid nucleation score, 0.804 ± 0.12:
CFFIVGLARIFGLVPVA

Amyloid nucleation score, -0.565 ± 1.5:
AWFVEKLLCDLHSPSAVGAG

Amyloid nucleation score, -1.2 ± 1.9:
CCFTLGAVSNCSLRGNSQTL

Amyloid nucleation score, 2.1 ± 0.07:
CDFALCSRWQVVYVKKQGQW

Amyloid nucleation score, -0.342 ± 1.2:
ADIDLVGVDCPWCGGLESFP
